Source: the nanobody polyreactivity screen of Harvey et al. (2022)

Assay: yeast display, Sf9 membrane polyspecificity reagent, FACS + sequencing; frameworks hold sequencing errors
Outline: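 Using colony PCR, genes from sorted yeast display clones were amplified, then sequenced on MiSeq at 2 × 250 and filtered by CDR length. The clones had been stained with 10% biotinylated, detergent-solubilized Sf9 membrane reagent for 1 hour at 4 °C and sorted by FACS into low and high (top ~1%) gates on anti-HA and streptavidin fluorescence. Polyreactivity labels come from the gate of origin.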

Row | Sequence | polyreactivity (PSR sort gate)
1 | QVQLVESGGGLVQAGGSLRLSCAASGRIFYPYAMGWYRQAPGKERELVAVISYSGGGTYYADSVKWRFTISRDNAKNTVYLQMNRMKPEDTAVYYCAAYADYSYYVYDYWGQGTQVTVSS | high polyreactivity
2 | QVQLVESGGGLVQAGGSLRLSCAASGRIFYQNAMGWYRQAPGKERELVADISSGGSTYYADSVKGRFTISRDNAKNTVYLQMNSLKPEDTAVYYCNTPSGPGTVGSYRRKWYGYWGQGTQVTVSS | low polyreactivity
3 | QVQLVESGGGLVQAGGSLRLSCAASGRIFYQYAMGWYRQAPGKERELVAAITRGGNTYYADSVKGRFTISRDNAKNTVYLQMNSLKPEDTAVYYCNARWHTTGYRYDYWGQGTQVTVSS | high polyreactivity
4 | QVQLVESGGGLVQAGGSLRLSCAASGRIFYRNAMGWYRPAPGKERELVASITSAGRTYYADSVKGRFTISRDNAKNTVYLQMNSLKPEDTAVYYCAVRVAVLLNLYGYWGQGTQVTVSS | low polyreactivity
5 | QVQLVESGGGLVQAGGSLRLSCAASGRIFYRNGMGWYRQAPGKERELVAAISYSGGRTYYADSVKGRFTISRYNAKNTVYLQMNSLKPEDTAVYYCAAQWFEDFLYPWLEYDYWGQGTQVTVSS | high polyreactivity
6 | QVQLVESGGGLVQAGGSLRLSCAASGRIFYRYAMGWYRPAPGKERELVAAIRYSGGRTYYADSVKGRFTISRDNAKNTVYLQMISLKPEDTAVYYCAADGQWYYAPFRGGDYENDYWGQGTQVTVSS | low polyreactivity
7 | QVQLVESGGGLVQAGGSLRLSCAASGRIFYRYAMGWYRQAPGKERELVAAITGSGGSTYYADSVKGRFTISRDNAKNTVYLQMNSLKPEDTAVYYCNAVYARYGSQGYEYWGHGTQVTVSS | high polyreactivity
8 | QVQLVESGGGLVQAGGSLRLSCAASGRIFYRYAMGWYRQAPGKERELVATITSGGGTHYADSVKGRFTISRDNAKNTVYLQMNSLKPEDTAVYYCAAVQWYGYPYYSWGQGTQVTVSS | low polyreactivity
9 | QVQLVESGGGLVQAGGSLRLSCAASGRIFYRYTMGRYRQAPGKERELVAAITSSSGSTYYADSVKGRFTISRDNAKNTVYLQMNSLKPEDTAVYYCAARIYHDIDTRSYYWGQGTQVTVSS | high polyreactivity
10 | QVQLVESGGGLVQAGGSLRLSCAASGRIFYRYTMGWYRQAPGKERELVAAITRSGSSTRYADSVKGRFTISRDYAKNTVYLQMNSLKPEDTAVYYCATRVTSRTSGFDYWGQGTQVTVSS | high polyreactivity
11 | QVQLVESGGGLVQAGGSLRLSCAASGRIFYRYVMGWYRQAPGKERELVAAISRGGGTNYADSVKGRFTISRDNAKNTVYLQMNSLKPEDTAVYYCAARGSPGAGYYWGQGTQVTVSS | high polyreactivity
12 | QVQLVESGGGLVQAGGSLRLSCAASGRIFYSIAMGWYRQAPGKERELVAAISRSGVRTYYADSVKGRFTISRDNAKNTVYLQMNSLKPEDTAVYYCAAVIYGTTPQDEYDYWGQGTQVTVSS | low polyreactivity
13 | QVQLVESGGGLVQAGGSLRLSCAASGRIFYSYAMGWYRQAPGKERELVAAITDSGGSTYADSVKGRFTISRDNAKNTVYLQMNSLKPEDTAVYADSTYNWYYYYWGQGTQVTVSS | low polyreactivity
14 | QVQLVESGGGLVQAGGSLRLSCAASGRIFYSYAMGWYRQAPGKERELVATISSAGSTYYADAVKGRFTISRDNAKNTVYLQMNSLKPEDTAVYYCAARRPRRYGYWGQGTQVTVSS | high polyreactivity
15 | QVQLVESGGGLVQAGGSLRLSCAASGRIFYTNAMGWYRPAPGKERELVAAITRSGGRTYYADSVKGRFTISRDNAKNTVYLQMNSLKPEDTGVYYCAKVGYGHTGMGYWGQGTQVTVSS | high polyreactivity
16 | QVQLVESGGGLVQAGGSLRLSCAASGRIFYVNAMGWYRQAPGKERELVAGIDDGVTTYYAVSVKGRFTSSRDNAKNTVYLQMNSLKPEDTAVYYCAKETLVILIYDYWGQGTQVTVSS | low polyreactivity
17 | QVQLVESGGGLVQAGGSLRLSCAASGRIFYVYAMGWYRQAPGKEMELVATITSSGEGTYYADSVMGRFTISRDNAKNTVYLQMNSLKPEDTAVYYCARRYFVRFVHPPYYYWGQGTQVTVSS | low polyreactivity
18 | QVQLVESGGGLVQAGGSLRLSCAASGRIFYVYAMGWYRQAPGKEREFVAAITRRSGSTYYADSVKGRFTISRDNAKNTVYFQMKSVKPEDTAVYSCNARLKYAIPQVPPYDYWGQGTQVTVSS | high polyreactivity
19 | QVQLVESGGGLVQAGGSLRLSCAASGRIFYVYAMGWYRQAPGKERELVAAITQSGGRTYYADSVKGRFTISRDNAKNTVYLQMNSLKPEDTAVYYCAATWLGSRNLVHITLYYWGQGTQVTVSS | low polyreactivity
20 | QVQLVESGGGLVQAGGSLRLSCAASGRIFYVYAMGWYRQAPGKERELVAAITSGGRTDYADSVKGRFTISRDNAKNTVYLQMNSLKPEDTAVYYCAVRGSYRGWYDYWGQGTQVTVSS | high polyreactivity
21 | QVQLVESGGGLVQAGGSLRLSCAASGRIFYVYAMGWYRQAPGKERELVAAITWRGGTTYYADSVKGRFTISRDNAKNTVYLQMNSLKPEDTAVYYCNAKYFRSYYSIEYDYWGQGTQVTVSS | low polyreactivity
22 | QVQLVESGGGLVQAGGSLRLSCAASGRIFYVYAMGWYRQAPGKERELVPAITSSGGSTYYADSVKGRFTISRDTAKNTVYLQMNSLKPEDTAVYYCAARERAGYSRIRYNYWGQGTQVTVSS | high polyreactivity

Row | Sequence | polyreactivity (PSR sort gate)
23 | QVQLVESGGGLVQAGGSLRLSCAASGRIFYWNAMGWYRQAPGKERELVAAITYSTGSTYYADSVKGRFTISRDNAKNTVYLQMNSLKPEDTAVYYCAAEGPRGSWWALYDYWGQGTQVTVSS | low polyreactivity
24 | QVQLVESGGGLVQAGGSLRLSCAASGRIFYWNAMGWYRQEPGKEREFVAAIRLSSGSTYYADSVKGRFTISRDNAKYTVYLQLNSLKPVDTAVYYCATRTYTYWGGSYPHFYWGQGTQVTVSS | high polyreactivity
25 | QVQLVESGGGLVQAGGSLRLSCAASGRIFYYAMGWYRQAPGKERELVASITWSGGSTYYADSVKGRFTISRDNAKNTVYLQMNSLKPEDTAVYYCNADDLYTWYVVYNYWGQGTQVTVSS | low polyreactivity
26 | QVQLVESGGGLVQAGGSLRLSCAASGRIFYYNAMGSYRQAPGKESELVAAIRRSGSRTYYADSVKGRFTISRDNSKNTVSLEMNSLKPEDTAVYYCAAKYASFAHHDSWGQGTQVTVSS | high polyreactivity
27 | QVQLVESGGGLVQAGGSLRLSCAASGRIFYYNAMGWYRPAPGKERELVATITGSGGSTYYADSVKGRFTISRDNAKNTVYLQMNSLKPEDTAVYYCNATRWYYDFYKLDYWGQGTKVTVSS | low polyreactivity
28 | QVQLVESGGGLVQAGGSLRLSCAASGRIFYYNAMGWYRQAPGKERELVAAIRGGGSTNYADSVKGRFTISRDNAKNTVYLQMNSLKPEDTAVYYCAAPWTQILDYWGQGTQVTVSS | low polyreactivity
29 | QVQLVESGGGLVQAGGSLRLSCAASGRIFYYNAMGWYRQAPGKESELVAAIRYSGGSTSYADSVKGRFTISRDNAKNTVYLQMNSLKPEDTAVYYCAASTSNRWKLNYWGQGTQVTVSS | high polyreactivity
30 | QVQLVESGGGLVQAGGSLRLSCAASGRIFYYNTMGWYRQAPGKERELVAAITRSGGSTYYADSVKGRFTISRDNAKNTVYLQMNSLKPEDTAVYYCAAQRRYDTADHGYWGQGTQVTVSS | high polyreactivity
31 | QVQLVESGGGLVQAGGSLRLSCAASGRIFYYYAMGWYRQAPGKERELVAAISAGGGRTYYADSVKGRFTISRDNAKNTVYLQMNSLKPEDTAVYYCAVGRRIPGKYTSFGYWGQGTQVTVSS | high polyreactivity
32 | QVQLVESGGGLVQAGGSLRLSCAASGRIFYYYAMGWYRQAPGKERELVAAITWSGVNTYYADSVKGRFTISRDNAKNTVYLQMNSLKPEDTAVYYCATDTGYPYSYDLYDSYYWGQGTQVTVSS | low polyreactivity
33 | QVQLVESGGGLVQAGGSLRLSCAASGRIFYYYAMGWYRQAPGKERELVAGIDSGDSTNYADSVKGRFTISRDNAKNTVYLQMNSLKPEDTAVYYCAALHYGGYFSYYPYYYWGQGTQVTVSS | low polyreactivity
34 | QVQLVESGGGLVQAGGSLRLSCAASGRIFYYYAMGWYRQAPGKERELVATISSSGGSTYYADSVRGRFTISRDNAKNTVYLQMNSLKPEDTAVYYCAARVPLWSRGRTTWPKSQYEYWGQGTQVTVSS | high polyreactivity
35 | QVQLVESGGGLVQAGGSLRLSCAASGRIFYYYAMGWYRQAPGKERELVATITTTGNTYYADSVKGRFTISRDNAKNTVYLQMNSLKPEDTAVYYCNAGWDLVYGYYPRRKNFDYWGQRTQVTVSS | high polyreactivity
36 | QVQLVESGGGLVQAGGSLRLSCAASGRIFYYYAMGWYRQAPGKESELVAAISGGGGRTYYADSVKGRFTISRDNAKHTVYLQMNSLKPEDTAVYYCNADYFYRTVNQRYDYWGQGTQVTVSS | high polyreactivity
37 | QVQLVESGGGLVQAGGSLRLSCAASGRIFYYYDMGWNRQAPGQERELVAAISFSDGITYYADSVKGRFTISRDNAKNTVYLQMNSLKPEDTAVYYCAAVYRYRNRREYDYWGQGTEVTVSS | high polyreactivity
38 | QVQLVESGGGLVQAGGSLRLSCAASGRIGYYAMGWYRQAPGKERELVATISRGGSTKYADSVKGRFTISRDNAKNTVYLQMNSLKPEDTAVYYCAAARAPRYDYWGQGTQVTVSS | high polyreactivity
39 | QVQLVESGGGLVQAGGSLRLSCAASGRIIAYYAMGWYRQAPGKERELVAAISRRGGSTYYADSVKGRFTISRDNAKNTVYLQMNSLKPEDTAVYYCDTLTLESFSALYYWGQGTQVTVSS | low polyreactivity
40 | QVQLVESGGGLVQAGGSLRLSCAASGRIIDRNAMGWYRQAPGKERELFAAISSSGSTNYADSVKGRFTISRDNAKNTVYLQMNSLKPEDTAVYYCAARWRYVLAAGTRPVSFDYWGQGTQVTVSS | low polyreactivity
41 | QVQLVESGGGLVQAGGSLRLSCAASGRIIEYYAMGWYRQAPGKERELVAAISSGGSTYYADSVKGRFTISRDNAKNTVYLQMNSLKPEDTAVYYCNTRYVYTRGGPLKRDYWGQGTQVTVSS | high polyreactivity
42 | QVQLVESGGGLVQAGGSLRLSCAASGRIIGAYAMGWYRQAPGKERELVARISWSGGTTYYADSVKGRFTISRDNAKNTVYLQMDSLKPEDTAVYYCAARYSYYVTGGISKYDYWGQGTQVSVSS | low polyreactivity
43 | QVQLVESGGGLVQAGGSLRLSCAASGRIIGNNAMGWYRHAPGKERELVATISSRGGSTYYAESVKGRFTISRDNAKNTVYFQMNSLKPEDTAVYYCKAYTTLAYDLDYWGQGTQVTVSS | high polyreactivity
